This passage reports Kd results from PMC10590331, “Purification and Biochemical Characterization of the DNA Binding Domain of the Nitrogenase Transcriptional Activator NifA from Gluconacetobacter diazotrophicus”.

Holding throughout (settings): protein: recombinant; tags: N-terminal His-tag (pET28a, NheI/BamHI) removed with thrombin; label: 5' TAMRA on forward strand; blunt
For data set [1], the target named is T1, NifA NC-DBD (DNA binding domain without Cys pair) (Gluconacetobacter diazotrophicus, UniProt A9H5T0 530-581).
T1 sequence: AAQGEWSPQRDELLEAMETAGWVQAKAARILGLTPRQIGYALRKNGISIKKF
Put plainly: fluorescence anisotropy; no DTT; 10 mM Tris pH 8, 60 mM NaCl, 0.2 mM MgCl2 (5 mM DTT when reducing), 900 nM probe, 0-80 µM protein, 30 min at room temperature.

The target of data set [2] is T2, NifA 2C-DBD (DNA binding domain with upstream Cys pair) (Gluconacetobacter diazotrophicus, UniProt A9H5T0 520-581).
T2 sequence: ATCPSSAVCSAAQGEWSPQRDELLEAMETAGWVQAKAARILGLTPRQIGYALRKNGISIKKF
The data set is described as follows: fluorescence anisotropy; reduced, 5 mM DTT; 10 mM Tris pH 8, 60 mM NaCl, 0.2 mM MgCl2 (5 mM DTT when reducing), 900 nM probe, 0-80 µM protein, 30 min at room temperature.

Data set [3] addresses T2, NifA 2C-DBD (DNA binding domain with …). Put plainly: fluorescence anisotropy; oxidized (disulfide), no DTT; 10 mM Tris pH 8, 60 mM NaCl, 0.2 mM MgCl2 (5 mM DTT when reducing), 900 nM probe, 0-80 µM protein, 30 min at room temperature.

B1: nifH-UAS duplex, TAMRA-labeled (dsDNA)
DNA 1: CGGTTTTGTCAGGCTTCGCACAAAGCCG
DNA 2: CGGCTTTGTGCGAAGCCTGACAAAACCG
Take B1: the Kd amounted to 20 ± 5.6 µM in data set [1], 31.5 ± 8.1 µM in data set [2] and 34.5 ± 8.4 µM in data set [3].
